According to patent US20240398896A1, “INFLAMMASOME INHIBITION” (National University of Singapore, priority 2021, published 2024):

Columns and labels:
Zika virus (ZIKV) = type: cell-based, mouse; conditions: bat ASC2/rtTA vs WT BMDMs, ZIKV MOI=1, 24 h, Dox; FIG. 10F
bat ASC = assay: Co-immunoprecipitation of ASC2-His with bat ASC-Flag from HEK293T cells; type: binding; conditions: 0.25 μg bat or hupa4 ASC2 vs 3 μg human ASC2 transfected, FIG. 26B
Method: Co-immunoprecipitation. HEK293T cells were transfected in 6-well plate with plasmids encoding His-tagged empty vector (His alone), bat ASC2, human ASC2, and Hupa4 ASC2 along with Flag-tagged human or bat ASC. 3 μg human ASC2, in contrast to 0.25 μg control, bat or hupa4 ASC2, were transfected to normalize the expression. At 48 h post-transfection, cells were lysed in IP lysis buffer (Pierce) according to manufacturer's protocol and centrifuged at 500 g for 10 minutes at 4° C. The supernatants were subjected to immunoprecipitation by incubation for 16 hours at 4° C. with anti-Flag (Sigma) incubated magnetic beads, followed by washing three times with TBS containing 0.05% Tween 20 and once with purified water. Bound proteins were separated by 15% SDS-PAGE, followed by immunoblotting analysis with the indicated antibodies.

AIM2 inflammasome [1] = molecular target: T1, AIM2 inflammasome (Homo sapiens, UniProt Q9ULZ3); assay: ASC speck formation in HEK293T cells reconstituted with human AIM2-mCitrine and human ASC-mPlum (ImageStream); type: cell-based; set-up: expressed in transfected cells; host or cells: HEK293T; conditions: FIG. 3D
Excerpt: (§1) Inflammasome activation assays.
ImageStream imaging flow cytometry. […] Nuclei were stained with DAPI.

AIM2 inflammasome [2] = molecular target: T1, AIM2 inflammasome; assay: Inflammasome activation in LPS-primed THP-1 macrophages stably expressing ASC2, transfected with poly(dA:dT); type: cell-based; set-up: endogenous in cells; host or cells: THP-1 macrophages (PMA-differentiated, LPS-primed, poly(dA:dT)-transfected); conditions: LPS 3 h, poly(dA:dT) 4 h
Excerpt: (§2) Generation of THP-1 and IMACs stable cells. […] Single cell clones were generated for THP-1 cells stably expressing ASC2-LSSmOrange.
as §1

NLRP3 inflammasome = NLRP3 inflammasome (Homo sapiens, UniProt Q9ULZ3); assay: Inflammasome activation in LPS-primed THP-1 macrophages stably expressing ASC2, stimulated with MSU crystals; type: cell-based; set-up: endogenous in cells; host or cells: THP-1 macrophages (PMA-differentiated, LPS-primed); conditions: LPS 3 h, MSU crystals 4 h
Excerpt: as §2, §1

[3] = system: H1N1 IAV, strain A/NWS/33; type: in vivo, mouse
AIM2 inflammasome [4] = molecular target: T2, AIM2 inflammasome (Mus musculus, UniProt Q9EPB4); assay: Inflammasome activation in LPS-primed BMDMs of bat ASC2/rtTA mice transfected with poly(dA:dT); type: cell-based; conditions: Dox, LPS 3 h, poly(dA:dT) transfection 4 h, FIG. 5D, 5E
T2 construct: endogenous in cells; host or cells: BMDMs of wild-type and bat ASC2/rtTA mice
T2 sequence (Q9EPB4 1-193): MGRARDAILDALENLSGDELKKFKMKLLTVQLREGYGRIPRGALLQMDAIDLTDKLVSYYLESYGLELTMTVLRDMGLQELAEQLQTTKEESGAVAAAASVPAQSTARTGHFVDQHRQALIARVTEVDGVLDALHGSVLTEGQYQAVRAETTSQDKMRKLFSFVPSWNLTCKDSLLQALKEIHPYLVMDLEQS
Excerpt: as §1

[5] = system: peritonitis induced by ASC specks; assay: Peritonitis induced by ASC specks in bat ASC2/rtTA mice; type: in vivo, mouse; conditions: bat ASC2/rtTA vs WT mice, oral Dox 7 days, ASC-mPlum specks i.p., 4 h
[6] = molecular target: T3, PYD-PYD interaction of human ASC (Homo sapiens, UniProt Q9ULZ3); assay: NanoBiT inhibition assay of PYD-PYD interaction in HEK293T cells; type: cell-based; conditions: LgBiT/SmBiT-tagged PYD pairs 10 or 1 ng each, bat ASC2-LSSmOrange 10 ng, FIG. 19, 20
T3 construct: Human ASC PYRIN domain (PYD) was PCR amplified; linker […]; expressed in transfected cells; host or cells: HEK293T
Excerpt: Plasmids. Vectors were constructed by standard molecular cloning with pcDNA3.1 (+) as the backbone. Restriction enzyme sites used include NheI, AgeI (introduced), HindIII, BamHI, XhoI, and XbaI from 5′ to 3′ sequentially. […]. The N-terminal and C-terminal inserts of human ASC PYD or NanoBiT tags were flanked by AgeI/HindIII and BamHI/XhoI, respectively. The linker (GSSGGGGSGGGGSSG) flanked by HindIII/BamHI and C-terminal His10-tag flanked by XhoI/XbaI was oligo annealed. The gene fragments were introduced into the backbone by single, double, or triple insertions. The resulting vectors were sequenced using CMV-F and BGH-rev primers.
Cell Culture and Transfection. HEK293T cells were cultured in modified Eagle's medium (DMEM) with 10% fetal bovine serum in humidified 37° C. incubator with 5% CO2. Cells were seeded at a density of 3×10^5 cells/mL one day prior to transient transfection using Fugene 6 transfection reagent (Promega) according to the manufacturer's instructions. At 24 h post-transfection, cells are harvested for analyses.
NanoBiT and Inhibition Assay. White opaque plates were coated with 50 μL of 0.001% poly-L-lysine for at least 15 min at 37° C. and air-dried before seeding 3×10^5 cells/mL HEK239T cells. […] Luminescence is immediately quantified using BioTek Cytation 5 with a gain of 135 and an integration time of 1 s.

NLRP1 inflammasome = NLRP1 inflammasome (Homo sapiens, UniProt Q9ULZ3); assay: Talabostat-induced inflammasome activation in N/TERT-1 keratinocytes stably expressing ASC2-mCitrine
Method: (§3) Immortalized N/TERT-1 keratinocyte were cultured in KSFM media (Gibco) supplemented with 30 g/ml BPE, 0.1 ng/ml rEGF, and 0.3 mM calcium chloride.
(§4) GP2-293 cells stably expressing gag and pol proteins, were co-transfected with pVSV-G envelope vector and mCitrine-only empty vector, bat or human ASC2-mCitirine pQCXIH vector for 48 h. Supernatants containing retroviruses were collected, centrifuged at 500 g for 10 min. N/TERT-1 cells were transduced with low MOI of retrovirus for 24 h to obtain a single viral copy per transduced cell. 72 h post-transduction, cells were selected by 20 μg/mL Hygromycin B antibiotic for at least 1 week to ensure stable expression. The stable cells were FACS-sorted for equal fluorescent intensity to ensure the same expression levels across cell lines.
(§5) Inflammasome activation assay. N/TERT-1 cells in KSFM without antibiotics were seeded at 1.8×10^5/mL into 96-well plates overnight. Cells were treated with various concentrations (0, 20, 200 μM) of talabostat dissolved in DMSO for 24 h. DMSO concentration is controlled at 0.5% for all treated wells.

[7] = molecular target: NLRP1 inflammasome (Homo sapiens); assay: as above; conditions: N/TERT-1, talabostat 0, 20, 200 μM, 24 h; FIG. 25B
Chain of NLRP1 inflammasome (Homo sapiens) (Q9ULZ3 whole entry): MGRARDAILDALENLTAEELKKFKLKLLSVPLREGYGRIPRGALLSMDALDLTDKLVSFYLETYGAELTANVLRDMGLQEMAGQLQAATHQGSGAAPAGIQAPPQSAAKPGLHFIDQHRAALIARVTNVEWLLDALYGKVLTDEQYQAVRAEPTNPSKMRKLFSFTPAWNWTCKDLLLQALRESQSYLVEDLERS
Method: as §3, §4, §5

T1 sequence (Q9ULZ3 whole entry): as above
Chain of NLRP1 inflammasome (Q9ULZ3 whole entry): as above
Chain of NLRP3 inflammasome (Q9ULZ3 whole entry): as above
T3 sequence (Q9ULZ3 1-91 limits assumed): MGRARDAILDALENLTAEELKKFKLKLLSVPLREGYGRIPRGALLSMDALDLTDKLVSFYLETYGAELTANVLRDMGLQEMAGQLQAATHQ

B1: bat ASC2: ASC2 (PYRIN-only protein) of the bat Pteropus alecto, SEQ ID NO:11; expressed from vectors or as Dox-inducible transgene (protein)
chain: MGKKRDAILEALENLTADELKKFKLKLGAAPLRQGFRNIPRGALGPLDAVDLTDKLVAFYCEDYGAELTAVVLRDIGMQEEAERLQGVA
- IL-1β secretion triggered by ZIKV (Zika virus (ZIKV)): substantially inhibited
- Interaction with bat ASC (co-IP) (bat ASC): interact with bat ASC more strongly than human ASC2
- ASC speck formation (human AIM2 inflammasome activation) (AIM2 inflammasome [1]; HEK293T, human AIM2-mCitrine, human ASC-mPlum, ASC2-LSSmOrange): suppressed the activation
- Potency in inhibiting human AIM2 inflammasome compared with human ASC2 (AIM2 inflammasome [1]; expression normalized by gating equal signal intensity): significantly more potent
- Cell death (LDH release) (AIM2 inflammasome [2]; FIG. 3G): inhibited
- IL-1β secretion (AIM2 inflammasome [2]; FIG. 3H): inhibited
- Cell death (LDH release) (NLRP3 inflammasome; FIG. 4D): inhibited
- IL-1β secretion (NLRP3 inflammasome; FIG. 4E): inhibited
- Level of IL-1β in lung tissue extracts ([3]; 3 dpi, bat ASC2/rtTA vs WT mice, FIG. 10B): significantly reduced
- Lung viral titres ([3]; 3 dpi, bat ASC2/rtTA vs WT mice, FIG. 10C): no significant different
- Mortality ([3]; bat ASC2/rtTA mice, IAV 0.5×10^5 pfu intranasal one day after Dox, 14 days post-infection, 100% of WT mice succumbed): 50%
- Activation of AIM2 inflammasome (LDH release, IL-1β) (AIM2 inflammasome [4]): suppressed the activation
- Recruitment of neutrophils (peritoneal lavage) ([5]; FIG. 8E): suppressed
- IL-1β release (peritoneal lavage) ([5]; FIG. 8F): suppressed
- PYD-PYD protein-protein interaction (NanoBiT luminescence signal) [6]: inhibit PYD-PYD protein-protein interaction
- IL-1β secretion (NLRP1 inflammasome; N/TERT-1, talabostat 0, 20, 200 μM, 24 h, FIG. 25C): reduces IL-1β secretion
- Potency in inhibiting NLRP1 inflammasomes compared with human ASC2 (NLRP1 inflammasome; human skin cells (N/TERT-1)): significantly more potent
- Cell death (LDH release) [7]: reduces cell death
